Source: the Immune Epitope Database (IEDB)
One block for each sequence: values may come before it.

Experiments:
HLA-C*03:03 = test: IEDB peptide-MHC binding, purified MHC/direct/fluorescence; filed as Kd, often an IC50 or EC50 that approximates it; ≥ and ≤ were set here for values at or beyond the usual limits of such assays; details: source organism: Mycobacterium tuberculosis H37Rv
HLA-C*14:02 = test: as above; details: source organism: Mycobacterium tuberculosis H37Rv
HLA-C*05:01 = test: as above
HLA-C*12:03 = test: as above; details: source organism: Leishmania major strain Friedlin
HLA-A*03:01 = test: as above
HLA-A*31:01 [1] = test: as above
HLA-B*44:02 = test: as above
HLA-A*30:01 = test: as above
HLA-B*07:02 = test: as above
HLA-A*69:01 [2] = test: as above
HLA-B*27:05 = test: as above
HLA-A*02:01 = test: as above
HLA-B*15:01 [3] = test: as above
HLA-A*26:01 [4] = test: as above
HLA-B*58:01 [5] = test: as above
HLA-B*40:01 = test: as above
HLA-B*08:01 = test: as above
HLA-A*01:01 = test: as above
HLA-A*11:01 = test: as above
HLA-B*57:01 [6] = test: IEDB peptide-MHC binding, purified MHC/competitive/radioactivity; filed as Kd, often an IC50 or EC50 that approximates it; ≥ and ≤ were set here for values at or beyond the usual limits of such assays
HLA-B*58:01 [7] = test: as above
HLA-B*53:01 = test: as above; details: source organism: Dengue virus 3 Martinique/1243/1999
HLA-A*31:01 [8] = test: IEDB peptide-MHC binding, purified MHC/competitive/fluorescence; filed as Kd, often an IC50 or EC50 that approximates it; ≥ and ≤ were set here for values at or beyond the usual limits of such assays; details: source organism: Entamoeba dispar SAW760
HLA-A*23:01 = test: as above
HLA-B*39:01 = test: as above; details: source organism: Entamoeba dispar SAW760
HLA-A*02:19 = test: as above; details: source organism: Entamoeba dispar SAW760
HLA-B*57:01 [9] = test: as above; details: source organism: Entamoeba dispar SAW760
HLA-A*69:01 [10] = test: as above; details: source organism: Entamoeba dispar SAW760
HLA-B*51:01 = test: as above; details: source organism: Entamoeba dispar SAW760
HLA-B*27:03 = test: as above; details: source organism: Entamoeba dispar SAW760
HLA-A*24:03 [11] = test: as above; details: source organism: Entamoeba dispar SAW760
HLA-A*02:03 = test: as above; details: source organism: Entamoeba dispar SAW760
HLA-B*15:01 [12] = test: as above; details: source organism: Entamoeba dispar SAW760
HLA-B*15:17 = test: as above; details: source organism: Entamoeba dispar SAW760
HLA-B*46:01 = test: as above; details: source organism: Entamoeba dispar SAW760
HLA-B*18:01 = test: as above; details: source organism: Entamoeba dispar SAW760
HLA-A*02:12 = test: as above; details: source organism: Entamoeba dispar SAW760
HLA-A*26:01 [13] = test: as above; details: source organism: Entamoeba dispar SAW760
HLA-A*68:02 = test: as above; details: source organism: Entamoeba dispar SAW760
HLA-A*24:03 [14] = test: IEDB peptide-MHC binding, purified MHC/direct/fluorescence; filed as Kd, often an IC50 or EC50 that approximates it; ≥ and ≤ were set here for values at or beyond the usual limits of such assays
HLA-A*32:01 = test: IEDB peptide-MHC binding, purified MHC/competitive/radioactivity; filed as Kd, often an IC50 or EC50 that approximates it; ≥ and ≤ were set here for values at or beyond the usual limits of such assays; details: source organism: Dengue virus 1 Brazil/97-11/1997
HLA-B*35:01 = test: IEDB peptide-MHC binding, purified MHC/direct/fluorescence; filed as Kd, often an IC50 or EC50 that approximates it; ≥ and ≤ were set here for values at or beyond the usual limits of such assays
[15] = source organism: Vibrio parahaemolyticus
[16] = source organism: Dengue virus 4 Philippines/H241/1956
[17] = source organism: Dengue virus 3 Martinique/1243/1999
[18] = source organism: Escherichia coli
[19] = source organism: Dengue virus 2 Jamaica/1409/1983
[20] = source organism: Dengue virus 1 Brazil/97-11/1997
[21] = source organism: Coxiella burnetii
[22] = source organism: Salmonella enterica
[23] = source organism: Salmonella enterica subsp. enterica serovar Typhi

Sequence: AAAANTTAL
- Kd (HLA-C*03:03): ≤ 0.001 µM
- Kd (HLA-C*14:02): 0.607 µM
- Kd (HLA-C*05:01; source organism: Mycobacterium tuberculosis H37Rv): 1.68 µM

Sequence: AAVDNAVVV
- Kd (HLA-C*12:03): ≤ 0.001 µM

Sequence: DQFSIPIRY
- Kd (HLA-A*03:01; [15]): ≥ 20 µM
- Kd (HLA-A*31:01 [1]; [15]): ≥ 20 µM
- Kd (HLA-B*44:02; [15]): ≥ 20 µM
- Kd (HLA-A*30:01; [15]): 8.36 µM
- Kd (HLA-B*07:02; [15]): ≥ 20 µM
- Kd (HLA-A*69:01 [2]; [15]): ≥ 20 µM
- Kd (HLA-B*27:05; [15]): ≥ 20 µM
- Kd (HLA-A*02:01; [15]): ≥ 20 µM
- Kd (HLA-B*15:01 [3]; [15]): 0.579 µM
- Kd (HLA-A*26:01 [4]; [15]): ≥ 20 µM
- Kd (HLA-B*58:01 [5]; [15]): ≥ 20 µM
- Kd (HLA-B*40:01; [15]): ≥ 20 µM
- Kd (HLA-B*08:01; [15]): ≥ 20 µM
- Kd (HLA-A*01:01; [15]): ≥ 20 µM
- Kd (HLA-A*11:01; [15]): ≥ 20 µM

Sequence: EASISNITTA
- Kd (HLA-B*57:01 [6]; [16]): ≥ 23.5 µM
- Kd (HLA-B*58:01 [7]; [16]): 1.63 µM

Sequence: LATAIAGAW
- Kd (HLA-B*53:01): 0.0199 µM
- Kd (HLA-B*57:01 [6]; [17]): 0.00719 µM
- Kd (HLA-B*58:01 [7]; [17]): 0.0056 µM

Sequence: LLDEPTNNL
- Kd (HLA-A*69:01 [2]; source organism: Burkholderia mallei): 0.0883 µM
- Kd (HLA-C*05:01; source organism: Bifidobacterium longum DJO10A): 0.007 µM

Sequence: LMTHTWHAK
- Kd (HLA-A*31:01 [8]): 0.119 µM
- Kd (HLA-A*23:01; source organism: Entamoeba dispar SAW760): ≥ 20 µM
- Kd (HLA-B*39:01): ≥ 20 µM
- Kd (HLA-A*02:19): ≥ 20 µM
- Kd (HLA-B*57:01 [9]): ≥ 20 µM
- Kd (HLA-A*69:01 [10]): ≥ 20 µM
- Kd (HLA-B*51:01): ≥ 20 µM
- Kd (HLA-B*27:03): ≥ 20 µM
- Kd (HLA-A*24:03 [11]): ≥ 20 µM
- Kd (HLA-A*02:03): ≥ 20 µM
- Kd (HLA-B*15:01 [12]): ≥ 20 µM
- Kd (HLA-B*15:17): ≥ 20 µM
- Kd (HLA-B*46:01): ≥ 20 µM
- Kd (HLA-B*18:01): ≥ 20 µM
- Kd (HLA-A*02:12): ≥ 20 µM
- Kd (HLA-A*26:01 [13]): ≥ 20 µM
- Kd (HLA-A*68:02): ≥ 20 µM

Sequence: MQLAKEHNF
- Kd (HLA-A*23:01; source organism: Francisella tularensis subsp. tularensis FSC198): 0.0291 µM

- Kd (HLA-A*03:01; [18]): ≥ 20 µM
- Kd (HLA-A*31:01 [1]; [18]): ≥ 20 µM
- Kd (HLA-A*30:01; [18]): ≥ 20 µM
- Kd (HLA-A*69:01 [2]; [18]): ≥ 20 µM
- Kd (HLA-B*27:05; [18]): ≥ 20 µM
- Kd (HLA-A*02:01; [18]): ≥ 20 µM
- Kd (HLA-A*24:03 [14]; [18]): ≥ 20 µM
- Kd (HLA-B*15:01 [3]; [18]): ≥ 20 µM
- Kd (HLA-A*26:01 [4]; [18]): ≥ 20 µM
- Kd (HLA-B*58:01 [5]; [18]): ≥ 20 µM
- Kd (HLA-B*40:01; [18]): ≥ 20 µM
- Kd (HLA-B*08:01; [18]): ≥ 20 µM
- Kd (HLA-A*01:01; [18]): ≥ 20 µM
- Kd (HLA-A*11:01; [18]): ≥ 20 µM
Sequence: NMERKLNLS

Sequence: RSWNSGHEW
- Kd (HLA-B*57:01 [6]; [19]): 0.00205 µM
- Kd (HLA-B*58:01 [7]; [19]): 0.00105 µM

Sequence: RSWNSGYDW
- Kd (HLA-B*57:01 [6]; [20]): ≤ 0.001 µM
- Kd (HLA-A*32:01): 0.0543 µM
- Kd (HLA-B*58:01 [7]; [20]): 0.0135 µM

Sequence: VMKRNFIDF
- Kd (HLA-A*03:01; [21]): ≥ 20 µM
- Kd (HLA-A*31:01 [1]; [21]): ≥ 20 µM
- Kd (HLA-B*44:02; [21]): ≥ 20 µM
- Kd (HLA-A*30:01; [21]): 3.63 µM
- Kd (HLA-A*69:01 [2]; [21]): ≥ 20 µM
- Kd (HLA-B*27:05; [21]): ≥ 20 µM
- Kd (HLA-B*35:01; [21]): 1.13 µM
- Kd (HLA-A*02:01; [21]): ≥ 20 µM
- Kd (HLA-A*24:03 [14]; [21]): 4.91 µM
- Kd (HLA-B*15:01 [3]; [21]): 0.0844 µM
- Kd (HLA-A*26:01 [4]; [21]): ≥ 20 µM
- Kd (HLA-B*58:01 [5]; [21]): ≥ 20 µM
- Kd (HLA-B*40:01; [21]): ≥ 20 µM
- Kd (HLA-B*08:01; [21]): 2.25 µM
- Kd (HLA-A*01:01; [21]): ≥ 20 µM

Sequence: VPQTDAGVT
- Kd (HLA-A*03:01; [22]): ≥ 20 µM
- Kd (HLA-A*31:01 [1]; [23]): 0.592 µM
- Kd (HLA-B*44:02; [22]): ≥ 20 µM
- Kd (HLA-A*30:01; [23]): 4.4 µM
- Kd (HLA-B*07:02; [23]): 1.89 µM
- Kd (HLA-A*69:01 [2]; [22]): ≥ 20 µM
- Kd (HLA-B*27:05; [22]): ≥ 20 µM
- Kd (HLA-B*35:01; [23]): 0.888 µM
- Kd (HLA-A*02:01; [22]): ≥ 20 µM
- Kd (HLA-A*24:03 [14]; [23]): 1.27 µM
- Kd (HLA-B*15:01 [3]; [22]): ≥ 20 µM
- Kd (HLA-A*26:01 [4]; [22]): ≥ 20 µM
- Kd (HLA-B*58:01 [5]; [23]): ≥ 10 µM
- Kd (HLA-B*40:01; [22]): ≥ 20 µM
- Kd (HLA-B*08:01; [22]): ≥ 20 µM
- Kd (HLA-A*01:01; [22]): ≥ 20 µM
- Kd (HLA-A*11:01; [23]): 2.9 µM
